B1: DASH complex subunit DAM1 (Saccharomyces cerevisiae), P53267 (parent)
chain: MSEDKAKLGTTRSATEYRLSIGSAPTSRRSSMGESSSLMKFADQEGLTSSVGEYNENTIQQLLLPKIRELSDSIITLDSNFTRLNFIHESLADLNESLGSLLYGIMSNSWCVEFSQAPHDIQDDLIAIKQLKSLEDEKNNLVMELSNMERGIKRKKDEQGENDLAKASQNKQFNQPLFPSSQVRKYRSYDNRDKRKPSKIGNNLQVENEEDYEDDTSSEASFVLNPTNIGMSKSSQGHVTKTTRLNNNTNSKLRRKSILHTIRNSIASGADLPIENDNVVNLGDLHPNNRISLGSGAARVVNGPVTKNRNSMFSGRAERKPTESRHSVAKKTEKKINTRPPFR
partner: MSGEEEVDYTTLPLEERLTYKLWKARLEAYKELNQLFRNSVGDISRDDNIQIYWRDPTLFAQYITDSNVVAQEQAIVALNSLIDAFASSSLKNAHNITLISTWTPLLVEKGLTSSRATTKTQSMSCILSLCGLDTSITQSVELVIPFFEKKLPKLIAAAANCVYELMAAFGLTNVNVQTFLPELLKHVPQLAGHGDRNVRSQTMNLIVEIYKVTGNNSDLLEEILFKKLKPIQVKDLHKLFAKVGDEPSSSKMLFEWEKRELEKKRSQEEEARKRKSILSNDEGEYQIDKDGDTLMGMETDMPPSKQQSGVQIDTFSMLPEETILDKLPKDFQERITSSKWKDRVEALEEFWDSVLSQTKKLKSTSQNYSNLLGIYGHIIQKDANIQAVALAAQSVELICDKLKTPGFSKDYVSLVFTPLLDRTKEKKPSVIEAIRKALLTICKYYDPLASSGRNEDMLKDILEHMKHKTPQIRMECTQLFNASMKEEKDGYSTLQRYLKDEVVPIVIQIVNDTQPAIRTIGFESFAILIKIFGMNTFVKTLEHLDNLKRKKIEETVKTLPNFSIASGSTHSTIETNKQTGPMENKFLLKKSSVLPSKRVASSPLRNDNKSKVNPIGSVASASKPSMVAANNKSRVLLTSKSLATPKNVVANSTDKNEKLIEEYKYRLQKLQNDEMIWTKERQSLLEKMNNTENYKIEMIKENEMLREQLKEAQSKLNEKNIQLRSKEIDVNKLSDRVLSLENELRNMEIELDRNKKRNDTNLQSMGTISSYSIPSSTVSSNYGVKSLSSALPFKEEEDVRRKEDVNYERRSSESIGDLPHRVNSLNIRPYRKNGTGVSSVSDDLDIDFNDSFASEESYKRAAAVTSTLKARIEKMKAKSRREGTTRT
B2: DASH complex subunit DAM1 (Saccharomyces cerevisiae), P53267 (parent)
chain: B1 chain

Variants of: B1
Conditions: with stu2_yeast STU2, P46675

Variant | effect of a mutation on the interaction
S257D;S265D;S292D;S327D | disrupting interaction strength

Variants of: B2
Conditions: with ndc80_yeast NDC80, P40460
ndc80_yeast NDC80, P40460, sequence (P40460 whole entry): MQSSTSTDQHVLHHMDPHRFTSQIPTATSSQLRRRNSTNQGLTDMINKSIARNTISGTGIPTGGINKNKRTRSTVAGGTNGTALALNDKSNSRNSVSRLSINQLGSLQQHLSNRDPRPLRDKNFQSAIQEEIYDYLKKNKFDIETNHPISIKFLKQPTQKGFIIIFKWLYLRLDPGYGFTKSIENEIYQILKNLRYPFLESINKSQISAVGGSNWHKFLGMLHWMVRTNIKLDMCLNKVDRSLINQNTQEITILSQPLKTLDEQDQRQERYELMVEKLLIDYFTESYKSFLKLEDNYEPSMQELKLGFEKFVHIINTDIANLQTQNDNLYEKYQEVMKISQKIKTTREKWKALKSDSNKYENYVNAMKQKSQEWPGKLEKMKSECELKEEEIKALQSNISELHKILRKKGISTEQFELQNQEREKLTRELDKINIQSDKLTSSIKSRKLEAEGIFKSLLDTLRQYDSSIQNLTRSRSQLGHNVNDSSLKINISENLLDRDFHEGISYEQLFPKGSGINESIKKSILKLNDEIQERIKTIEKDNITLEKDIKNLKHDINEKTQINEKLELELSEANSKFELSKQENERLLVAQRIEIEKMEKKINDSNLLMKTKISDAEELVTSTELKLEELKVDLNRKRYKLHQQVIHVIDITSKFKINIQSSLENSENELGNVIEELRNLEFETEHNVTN

Variant | effect of a mutation on the interaction
S257D;S265D;S292D;S327D | decreasing interaction strength
